We go through one substance from patent US20200164083A1 (priority 2016, published 2020).

The test system of data set [1] is Zucker diabetic fatty rats. Description: Chronic glucoregulatory effects in diabetic ZDF rats. The note with it: single s.c. dose. The data set is classed as in vivo. On the procedure:
A total of 55 male Zucker diabetic fatty rats (ZDF-Lepr^fa/Crl) 6 weeks of age, and 180-200 gram (Charles River, USA) were single-housed and blood glucose and body weight were monitored bi-weekly for 2-4 weeks. Based on morning-fed blood glucose, outliers were excluded and 40 diabetic rats (average weight 340 g, blood glucose 9.7 to 22.5 mM, average 16.2 mM) were stratified into 4 groups of n=10. […]
Body-weights were monitored daily from day −3 throughout the study. Food and water intake were monitored on day −3 and daily for the first 11 days after the first dose then bi-weekly for the rest of the study period. Blood sampling was performed for pharmacokinetic studies 2 days after the first dose and then once weekly. HbA1c was measured day −3, and days 26 and 55 before OGTT, and the gastric emptying test was performed on day 26. For the OGTT, rats were semi-fasted overnight (60%) then PO glucose (2 g/kg in 10 mL) was administered at t=0. Blood glucose and insulin were measured at t=−60, −15, 0, 15, 30, 60 and 120 minutes after the glucose challenge. Gastric emptying was measured by administration of acetaminophen (100 mg/kg) with the OGTT on day 26, and blood levels were measured at 15, 30, 60 and 120 min.

The conditions of data set [2]: pH 9.4.
For data set [3] the following is noted: mouse, in vivo.
Experimental: B. The small amounts of microspheres needed in the mouse required a diluent to allow accurate dosing. […] This diluent served to keep the microspheres in a homogeneous suspension prior to and during administration and allowed dosing of convenient volumes. […] Syringes (0.5 mL U-100 insulin syringe with fixed 29 g×½″ needle, BD) were filled with the suspended microspheres under aseptic conditions. The needle assembly of each syringe was purged of air and weighed prior to and following dosing to determine the average mass of slurry delivered to each mouse.
Serum was prepared and frozen at −80° C. until analysis.
(§1) Serum samples were treated with 3 vol of ACN and centrifuged. The supernatant was dried, reconstituted and applied to a HPLC MS/MS system. The sample was eluted by a water/ACN gradient containing 0.1% formic acid. […] HPLC-MS/MS analyses were carried out on a Sciex 5500 QTrap® mass spectrometer coupled with a Shimadzu HPLC system. The Shimadzu HPLC system consisted of two LC-30AD HPLC pumps and a SIL-30AC autosampler with a 100-μL loop installed. […] The mass spectrometer was operated in positive electrospray ionization mode and the resolution setting used was the unit for both Q1 and Q3. […] Peak-area integrations were performed using Analyst software (version 1.5.2) from Sciex.
(§2) C vs. t curves (text) were analyzed using GraphPad Prism by non-linear regression of eq X (text) with weighting by 1/SD2; since ka>>k1 we modeled the single exponential phase of the terminal half-life using data points later than the first few days.
For data set [4] the following is noted: rat, in vivo.
Experimental: The content of each syringe was administered SC in the flank of six cannulated male Sprague Dawley rats (average weight 270 g).
as §1, §2
For data set [5] the following is noted: rat, in vivo, sc.
Experimental: Each syringe contained 0.45 or 0.98 μmol peptide at 1.9 μmol peptide g^−1 slurry. The syringes were weighed prior to and after dosing to verify the mass delivered to each rat. Blood samples (300 μL) were drawn and the serum was frozen at −80° C. until analysis.
Frozen serum samples were thawed on ice and diluted between 5 and 20-fold in the provided rat serum. […] Data replicates were averaged and fitted to appropriate pharmacokinetic models.

Like-named read-outs stand apart in the source and are kept apart here.

Consider “hydrogel-[N28Q]exenatide microspheres R^1=CN: PEG hydrogel microspheres coupled with Nα-[1-cyano-7-azido-2-heptyloxycarbonyl]-[N28Q]exenatide”, for which the “control of blood glucose” value in data set [1] is reported as “effective at controlling blood glucose for at least one month”. Also, the “half-life of first-order release of free peptide” value in data set [2] was 0.688 days. In data set [3], the AUCinf was found to be 800 ± 323 nM-hr; the Cmax is 0.81 nM; the “Dose adjusted: Cmax, 0” value is listed as 0.18 nM/(μmol/kg); the “k × 10^4 ± SE” value was 9.5 ± 1.0 h^−1. For the same substance, the t1/2 in data set [3] was found to be 30.4 days. In data set [4], the AUCinf is 448 ± 91 nM-hr; the Cmax was found to be 0.36 nM; the “Dose adjusted: Cmax, 0” value is 0.17 nM/(μmol/kg); the “k × 10^4 ± SE” value stood at 7.8 ± 1.3 h^−1. Also, in data set [4], the t1/2 amounted to 36.8 days. Besides, the “t1/2,β” value in data set [4] (sc) is 36.7 days. In data set [5], this substance gave a t1/2 of 31.7 days.
